Results taken from paper PMC12631696, “Trp101-Mediated Cold Adaptation in Sphingomonas sp. Thioredoxin: Increased α4-Helix Rigidity with Preserved Overall Flexibility” (ACS Omega, 2025).

Test system: O=C(O)c1cc(SSc2ccc([N+](=O)[O-])c(C(=O)O)c2)ccc1[N+](=O)[O-]
Test: purified protein
Settings: Trx pre-reduced with 5 mM DTT, 0.4 μM, 50 mM MOPS pH 7.0, 1 mM EDTA, DTNB 10–150 μM
[1] = apparent optimal temperature (40 °C)
[2] = apparent optimal temperature (60 °C)

With “SpTrx (Sphingomonas sp. PAMC 26621; W101A)” as the substance, how does the Km [1] read?
Its Km is 59.9 ± 0.2 µM.

And the kcat [1]?
Its kcat is 0.6 ± 0.1 s⁻¹.

How did the Km [1] turn out when “SpTrx (Sphingomonas sp. PAMC 26621; W101F)” was run?
Its Km is 50.7 ± 0.6 µM.

What about the kcat [1] of the same substance?
Its kcat is 14.6 ± 0.1 s⁻¹.

With “SpTrx (Sphingomonas sp. PAMC 26621; E43A)” as the substance, how does the Km [2] read?
Its Km is 38.3 ± 0.1 µM.

What about the kcat [2] of the same substance?
The kcat was 23.4 ± 0.1 s⁻¹.

With “SpTrx (Sphingomonas sp. PAMC 26621; E47A)” as the substance, how does the Km [1] read?
The Km was 39.0 ± 0.1 µM.

And the kcat [1]?
Its kcat is 23 ± 0.1 s⁻¹.

What does the source list for SpTrx (Sphingomonas sp. PAMC 26621)?
Km [2]: 33.0 ± 0.1 µM; kcat [2]: 26.1 ± 0.1 s⁻¹

For “SpTrx (Sphingomonas sp. PAMC 26621; E43A/E47A)”, which Km [1] is on record?
The Km was 44.0 ± 0.1 µM.

What about the kcat [1] of the same substance?
Its kcat is 13.1 ± 0.2 s⁻¹.
